Data on 19 molecules can be found in patent US20230054956A1 (VANDERBILT UNIVERSITY, published 2023).

T1: GII.4 Sydney 2012 virus-like particles (VLPs), based on strain AFV08795.1 (human norovirus GII.4 Sydney 2012, UniProt P54635 1-538, The particle is a multimeric assembly of VP1 with a little VP2 inside; one VP1 chain is given.)
T1 construct: VLP assembled from VP1 and VP2 in baculovirus/Sf9 cells; also called GII.4 VLPs
T1 chain: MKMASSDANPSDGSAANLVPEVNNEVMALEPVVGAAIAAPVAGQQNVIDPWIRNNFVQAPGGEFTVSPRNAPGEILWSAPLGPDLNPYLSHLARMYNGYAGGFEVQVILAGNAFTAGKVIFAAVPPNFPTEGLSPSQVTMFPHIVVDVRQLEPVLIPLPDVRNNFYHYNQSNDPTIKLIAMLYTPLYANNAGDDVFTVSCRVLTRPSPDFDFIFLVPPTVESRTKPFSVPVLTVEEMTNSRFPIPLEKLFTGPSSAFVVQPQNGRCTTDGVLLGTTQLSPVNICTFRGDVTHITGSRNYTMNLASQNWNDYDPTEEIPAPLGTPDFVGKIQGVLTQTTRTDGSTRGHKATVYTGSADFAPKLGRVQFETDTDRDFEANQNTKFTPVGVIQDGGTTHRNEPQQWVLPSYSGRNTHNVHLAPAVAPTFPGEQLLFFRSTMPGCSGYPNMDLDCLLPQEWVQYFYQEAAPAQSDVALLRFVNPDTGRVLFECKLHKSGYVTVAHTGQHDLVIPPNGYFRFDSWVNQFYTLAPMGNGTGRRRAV

B1: NORO-317 (antibody, V domains shown)
VH: QVQLVESGGGLVKPGGSLRLSCVASGFTFSDYYISWVRQAPGKGLEWVSYISAINSYTNYADSVRGRFTVSRDNAKKSVFLQMNSLRVDDTAVYYCARDVGGSVRYSSNSNKKSYNYFDPWGQGTLVTVSS
VL: SYELTQPPSVSVSPGQTATITCSGDVLSKEFAYWYQQKPGQAPVLVIYKDNERPSGIPERFSGSTSGTTVTLTISGVLAEDEAHYYCQSVDTRGTYKVFGGGTKLTVL
B2: NORO-202A.1 (antibody, V domains shown)
VH: QVQLVQSGAEVKKPGASVKVSCKASEYTFTGYYLQWVRQAPGHGLEWMGWINPSGGTKYSQKFQGRVTMTRDTSITTVYMELSRLRSDDTAVYYCARDLLRNWGDHDAFDVWGQGTMVTVSS
VL: QSVLTQPPSASETPGQGVTISCSGSSSNIGSNFVCWYQQVPGTAPKLLIYKNNQRPSGVPDRFSGSKSGTSASLAISGLRSEDEADYYCSAWDDSLSGPVFGGGTKLTVL
B3: NORO-273A (antibody, V domains shown)
VH: QVQLVQSGAEVKKPGASVKISCKASGYDFTSFPMHWVRLGPGQRLEWMGWISAANGNTKYSQKFQDRFTITRDTSASIVHMELSSLRSEDTAVYYCARGGYSSGLYRYSNYYYGMTVWGQGTLVTVSS
VL: DIVMTQTPLSLSVTPGQPASISCKSSESLLHNDRKTYLFWYLQKPGQPPQLLIFQVSNRFSGVPDRFSGSGSGTDFTLRISRVEAEDVGIYYCLQTTQLPLTFGGGTKVEIK
B4: NORO-263 (antibody, V domains shown)
VH: QVQLVESGGGLVKPGGSLRLSCAASGFTLSDYYMSWIRQAPGKGLEWVAYISSSHTSTYYRDSVKGRFTISRDSAKKSLYLQMNSLRVEDTAIYYCARDWVGGRSAYSDHWGQGTLVTVSS
VL: SYELTQPPSVSVSPGQTARITCSGDALPRRPAFWYQQKSGQAPVLVMYDDSKRPSGIPERFSGSSSGTVATLTISGAQVEDEADYHCYSTDSSGKERVFGGGTKLTVL
B5: NORO-296A (antibody, V domains shown)
VH: QVQLVESGGGLVKPGGSLRLSCAASGFTFSEYYMSWVRQAPGKALEWVSYITSSFSSTSYADSVKGRFVISRDNAKNSLYLQMNSLRVEDTAVYYCARYGAEYGSRSFYFLDWGQGTLVTVSS
VL: QSVLTQPPSVSGAPEQRVTISCTGSSSNIGAGYDVHWYQVLPGIAPKLLIYDNNKRPSGVPDRFSGSKSGTSASLAITGLQAEDEADYYCQSYDSRLSSNVVFGGGTKLTVL
B6: NORO-278 (antibody, V domains shown)
VH: QVQLVESGGGVVQPGRSLRLSCAASGFTFSSYGMHWVRQAPGKGLEWVAVISYDGSNKYYADSVKGRFTISRDNSKNTLYLQMNSLRAEDTAVYYCAKVTIIAAADLLDYWGQGTLVTVSS
VL: QSVLTQPPSVSGAPGQRVTISCTGSSSNIGAGYDVHWYQQLPGTAPKLLIYGNSNRPSGVPDRFSGSKSGTSASLAITGLQAEDEADYYCQSYDSSLSGPVVFGGGTKLTVL
B7: NORO-312A (antibody, V domains shown)
VH: QVQLVESGGALVKPGESLRLSCAASGFTFSDSYMSWIRQAPGKGLEWVAYISGIMSSTNYADSVKGRFTISRDNGKNSVYLQMNNLRAEDTAVYYCARDAQYCSGGRCYLVFDYWGQGTLVTVSS
VL: QSVLTQPPSVSGAPGQRVTISCTGSSSNIGAGYEVHWYQQLPGAAPKLIIYGNNNRPSGVPDRFSGSKSGTSASLAITGLQADDEADYYCQSYDNRLRVFGGGTKLTVL
B8: NORO-303 (antibody, V domains shown)
VH: QVQLVESGGGVVQPGRSLRLSCAASGFIFSSYAMHWVRQAPGKGLEWVAVMSYDGNNKYYADSVKGRFTISRDNSKNTLFLQMNSLRPEDTAVYYCARDCRVGWVFTYGMDVWGQGTLVTVSS
VL: QSALTQPPSASGSPGQSVTISCTGTSSDVGGYNYVSWYQQHPGKAPKLMMYEISKRPSGVPIRFSGSKSGNTASLTVSGLQAEDEADYYCSSYAGTYNCVVFGGGTKLTVL
B9: NORO-315B (antibody, V domains shown)
VH: QVQLVESGGGLVKPGGSLRLSCVASGFTFSDYYMTWFRQTPGRGLEWLSYISAIGGYTEYADSVKSRFIISRDNGKKSLYLQMNSLRAEDSGVYYCAREDCHGTSCYSGDWGQGTLVTVSS
VL: QSVLTQPPSVSGAPGQRVTISCTGSSSNIGAGYDVHWYQQLPGTAPKLLIYHNTNRPSGVPDRFSGSKSGTSAYLTITGLQAEDEADYYCQSYDRSLSKSRVFSGGTKLTVL
B10: NORO-313.1 (antibody, V domains shown)
VH: QVQLVESGGGLVKPGGSLRLSCAASGFTFSDFYMSWIRQAPGKGLEWVGYISSIAGATNYADSVKGRFTISRDSSKRSLYLQMNSLRVEDTAVYYCARMGRLELERRPHYYYPLDVWGQGTLVTVSS
VL: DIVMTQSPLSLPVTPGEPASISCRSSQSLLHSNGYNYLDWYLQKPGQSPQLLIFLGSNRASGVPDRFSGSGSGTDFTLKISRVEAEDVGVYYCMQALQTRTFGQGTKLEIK
B11: NORO-251A (antibody, V domains shown)
VH: QVQLVESGGGVVQPGRSLRLSCAASGFTFRSYGIHWVRQAPGKGLEWVALISYDGSSKYYADSVKGRFTISRDNSKNTLYLQMNSLRSEDTAVYYCAKVRLTSYSIGWFSFDYWGQGTLVTVSS
VL: QSVLTQPPSVSAAPGQKVTISCSGSSSNIANYYVSWYQQLPGRAPKLLIYDNNKRPSGIPDRISGSKSGTSATLGITGLQTGDEADYYCGTWDTSLSAWVFGGGTKLTVL
B12: NORO-310A (antibody, V domains shown)
VH: EVQLVESGGGLVRPGESLRLSCVASGFSVSDNYMSWVRQAPGKGLQWVSVIYSGGTTFYTDSVKGRFTISRDKSKNTLFLQMNSLRAEDTAVYFCTRDPSQYYDSRGHYYQTFTPSFDSWGQGTLVTVSS
VL: DIQMTQSPSVMSASVGDRVTITCRASQDISDYLAWFQQKPGKVPKRLIYAASSLQNGVPSRFSGSGSGTEFTLTISSLQPEDFATYYCLQHDTYPLTFGGGTKVEIK
B13: NORO-123 (antibody, V domains shown)
VH: QVQLVESGGGVVQPGRSLRLSCSTSGFTFSQYPMHWVRQAPGKGLEWVALISYDGMNKYYADSVRGRFTISRDNSENTQYLQMNSLRGDDTAVYYCARVTGDCTGNRCSYWAYYYYGLDVWGQGTLVTVSS
VL: QSALTQPPSASGSPGQSVTISCTGTSSDVGGYKYVSWYQQHPGKAPKLMIYEVTRRPSGVPDRFSGSKSGNTAFLTVSGLQAEDEADYYCGSYAGSTTSGYVFGTGTKVIVL
B14: NORO-256A (antibody, V domains shown)
VH: QVQLVESGGGVVQAGRSLRLSCAASGFTFRSYGMHWVRQAPGKGLEWVAIISYDGGSKYYADSVKGRFTISRDNSKNTLYLQMNSLRVEDTALYYCAKDFLRVYSYGWHSFDIWGLGTLVTVSS
VL: QSVLTQPPSVSAAPGQRVTISCSGSSSNIGTYYVSWYQHLPGTAPKLLIYDNDKRPSGIPDRFSASKSGTSATLDIAGLQTGDEADYYCGTWDLSLTAGWVFGGGTKLTVL
B15: NORO-279A (antibody, V domains shown)
VH: QVQLVESGGGVVQPGRSLRLSCAASGFTFTKYGMHWVRQAPGKGLEWVAFIAYDGSVKYYGDSAKGRFAISRDNPKNTVYLQMNSLRAEDTAVYYCAKVEIHYYSNSLLGMDVWGQGTLVTVSS
VL: QSVLTQPPSASGTPGQRVTISCSGGNSNIGISYVYWYQHLPGTAPKLLISKNNLRPSGVPDRFSASKSGTSASLAISGLRSEDEAEYYCATLDINMTWVFGGGTKLTVL
B16: NORO-250B (antibody, V domains shown)
VH: QVQLVESGGGLVKPGGSLTLSCAASGFTFSDYYMNWIRQAPGKRLEWVSYISGIMSSTNYADSVKGRFTISRDTAKKSVYLQMNSLRAEDTAVYYCARATSQGATSYYFDSWGQGTLVTVSS
VL: QSVLTQPPSVSGAPGQRVTISCTGSSSNIGADYDVHWYQQLPGAAPRLLIYADINRPSGVPDRFSGSKSGTSASLAITGLQAEDEADYYCQSYDRSVSGSAVFGGGTKVTVL
B17: NORO-232A.2 (antibody, V domains shown)
VH: QVQLKQWGAGLLKSSETLSLTCAFNGNSFGAFYWSWIRLSPGKGLEWIGEVNYLGGADYNPSLKSRVTMSADTSKRQFSLSLKSVTAADTGVYFCARGRPHDYSPGSYSRPRRYYGLDVWGQGTTVTVSS
VL: EIVLTQSPATLSLSPGDSATLSCRASQAVSTTYLAWYQQTRGQAPRLLIHGTYTRAIGIPDKFSGTGSGTDFTLTISGLAPEDFAVYYCQQYSSSPYTFGQGTKIEIT
notes: human hybridoma mAb; IgA, kappa; in both panels
B18: NORO-246A (antibody, V domains shown)
VH: EVHLVESGGGLVKPGGSLRLSCAASGFTFSRYGMHWVRQAPGKGLEWVSSIVIRSDYKYYADSVKGRFTISRDNAKNSLYLQMNSLRADDTAVYYCARDLVEPGITPVGCDYWGRGTLVTVSS
VL: SNELTQAPSVSVSPGQTARITCFGDALANQYSYWYQRKPGQAPVLVIYKDSERPSGIPQRFSASNSGTTVTLTITGVQAEDEADYFCQSADSTGIYKVFGGGTKLTVL
notes: human hybridoma mAb; IgG, lambda
B19: NORO-327A (antibody, V domains shown)
VH: QVQLEVSGGGLVKPGGSLRLSCAASGFTFTDYYMSWIRQAPGKGLEWVAYISGIMSSTKYADSVKGRFTISRDNGKNSVYLQMNSLTAEDTAVYYCARERVEPPSAVTDFWGQGTLVTVSS
VL: QSVLTQSPSVSGAPGQRVTISCTGTSSNIGAGYDVHWYQQFPGTAPKLLISHNTNRPSGVPDRFSGSKSGTSASLAITGLQAEDEADYYCQSFDSSLRGSRVFGGGTKLTVL
notes: as for B18

In one test the target is GII.4 Sydney 2012 virus-like particles (VLPs), based on strain AFV08795.1 (human norovirus GII.4 Sydney 2012, UniProt P54635 1-538, The particle is a multimeric assembly of VP1 with a little VP2 inside; one VP1 chain is given.). Description: indirect ELISA, VLP coated.
B1: it took 0.4 µg/mL to reach a half-maximal effect (EC50).
In turn, B2 had an EC50 of 0.4 µg/mL.
In the case of B3, the EC50 was found to be 0.2 µg/mL.
Same read-out and setting: the result for B4 reads 0.6 µg/mL.
In turn, B5 had an EC50 of 0.6 µg/mL.
On the same count and under the same terms, the result for B6 reads 4 µg/mL; that for B7, 0.4 µg/mL; that for B8, 0.5 µg/mL.
In the case of B9, a half-maximal effect (EC50) was put at 0.7 µg/mL.
Same read-out and setting: next, B10: 0.1 µg/mL.
Turning to B11, it took 0.9 µg/mL to reach a half-maximal effect (EC50).
Take B12: the 50% effective concentration (EC50) amounted to 6.2 µg/mL.
As to B13, a half-maximal effect (EC50) was put at 5.4 µg/mL.
Take B14: the EC50 worked out at 0.9 µg/mL. This EC50 is about 6-fold lower than that of the molecule before.
Molecule B15 came in with an EC50 of 0.2 µg/mL.
As to B16, a half-maximal effect (EC50) was put at 0.2 µg/mL.

A further test deals with T1, GII.4 Sydney 2012 virus-like particles …. Description: indirect ELISA, VLP coated.
With B17, the EC50 turned out to be 0.3 µg/mL.
Molecule B18 yielded an EC50 of 0.2 µg/mL.
On to B19, for which a half-maximal effect (EC50) was put at 0.6 µg/mL.
